Laboratory results reported in US9169496B2, “Method for the enzymatic production of butadiene” (Scientist of Fortune, S.A., priority 2011, dated 2015).

Experiments:
[1] = substrate: C/C=C\COP(=O)(O)O; assay: Kinetic parameters of the crotyl monophosphate phosphorylation reaction (pyruvate kinase/lactate dehydrogenase coupled spectrophotometric assay); type: biochemical, Methanothermobacter thermautotrophicus; conditions: other: cis crotyl monophosphate as a substrate; assay of Example 2; pH 7.5; 37.0 °C
Procedure: (§1) The release of ADP that is associated with crotyl alcohol phosphorylation was quantified using the pyruvate kinase/lactate dehydrogenase coupled assay (FIG. 5). The purified 4-methyl-5-(2-hydroxyethyl)thiazole kinases from Escherichia coli (SEQ ID NO:2), Bacillus subtilis (SEQ ID NO:1), Rhizobium leguminosarum (SEQ ID NO:3) were evaluated for their ability to phosphorylate crotyl alcohol releasing ADP. The studied enzymatic reaction was carried out under the following conditions at 37° C.: • 50 mM Tris-HCl pH 7.5 • 10 mM MgCl2 • 100 mM KCl • 5 mM ATP • 0.4 mM NADH • 1 mM Phosphoenolpyruvate • 3 U/ml Lactate dehydrogenase • 1.5 U/ml Pyruvate kinase • 50 mM crotyl alcohol, mixture cis and trans • The pH was adjusted to 7.5
(§2) Each assay was started by addition of a particular enzyme at a concentration 0.05 mg/ml and the disappearance of NADH was monitored by following the absorbance at 340 nm.
(§3) Sequences of isopentenyl monophosphate kinases inferred from the genomes of several members of the Archaea, in particular Methanothermobacter (SEQ ID NO:5), Methanocaldococcus (SEQ ID NO:6) and Thermoplasma (SEQ ID NO:4) genus, are generated by oligonucleotide concatenation to fit the codon usage of E. coli. […] The genes thus synthesized are cloned in a pET25b expression vector and the proteins are produced according to the protocol described in Example 1. The enzymes are then assayed using the method described in Example 2 with crotyl monophosphate concentrations varying from 0 to 50 mM. The release of ADP that is associated with crotyl monophosphate phosphorylation is quantified using the pyruvate kinase/lactate dehydrogenase coupled assay. Each assay is started by addition of particular enzyme (at a final concentration from 0.05 mg/ml to 1 mg/ml) and the disappearance of NADH is monitored by following the absorbance at 340 nm.
(§4) Cis crotyl monophosphate and trans crotyl monophosphate were synthesized upon request by a company specialized in custom synthesis (Syntheval, France). Kinetic parameters for the phosphorylation of these substrates were determined using the spectrophotometric assay described in Example 2. Kinetic parameters obtained with purified isopentenyl monophosphate kinases from different members of the Archaea kingdom are presented in Table 3 (cis crotyl monophosphate as a substrate) and Table 4 (trans crotyl monophosphate as a substrate).

[2] = substrate: C/C=C/COP(=O)(O)O; assay: as above; type: biochemical, Methanothermobacter thermautotrophicus; conditions: other: trans crotyl monophosphate as a substrate; assay of Example 2; pH 7.5; 37.0 °C
Procedure: as §1, §2, §3, §4

[3] = substrate: C/C=C/C(=O)SCCNC(=O)CCNC(=O)[C@H](O)C(C)(C)COP(=O)(O)OP(=O)(O)OC[C@H]1O[C@@H](n2cnc3c(N)ncnc32)[C@H](O)[C@@H]1OP(=O)(O)O; assay: Kinetic parameters towards crotonyl-CoA, overall reaction (crotyl alcohol quantification by HPLC); type: biochemical, Hahella chejuensis; conditions: other: NADPH fixed at 80 mM, crotonyl-CoA 0 to 32 mM, pH 7.5, 37° C.
Procedure: The reactions were initiated by addition of 150 μg of purified dehydrogenase/reductase to 150 μl of reaction mixture. Assays were incubated at 37° C. for 0.5-6 h. The reactions were stopped by heating at 65° C. for 5 minutes, reaction mixtures were centrifuged and 120 μl of the clarified supernatant were transferred into a clean vial. The reaction products were then extracted with an equal volume of ethyl acetate. 100 μl of the upper ethyl acetate phase was transferred into a clean vial for HPLC analysis. Commercial crotonaldehyde and crotyl alcohol were used as reference. HPLC-UV analysis was performed using a 1260 Inifinity LC System (Agilent). 10 μl of samples were separated on Zorbax SB-Aq column (250×4.6 mm, 3.5 μm particle size) with a mobile phase flow rate of 1.5 ml/min. The mobile phase consisted of 95:5 (v/v) H2O/Acetonitrile containing 8.4 mM sulfuric acid.
Kinetic parameters for the overall reaction were determined by crotyl alcohol quantification using HPLC procedure described in Example 17.

[4] = substrate: NC(=O)C1=CN([C@@H]2O[C@H](COP(=O)(O)OP(=O)(O)OC[C@H]3O[C@@H](n4cnc5c(N)ncnc54)[C@H](OP(=O)(O)O)[C@@H]3O)[C@@H](O)[C@H]2O)C=CC1; assay: purified protein, by the assay type; conditions: other: crotonyl-CoA fixed at 5 mM, NADPH 0 to 0.8 mM, pH 7.5, 37° C.
[5] = substrate: C/C=C\CO; assay: Kinetic parameters of crotyl alcohol phosphorylation (pyruvate kinase/lactate dehydrogenase coupled spectrophotometric assay); type: biochemical, Escherichia coli; conditions: other: crotyl alcohol phosphorylation, pH 7.5, 37° C., 5 mM ATP
Procedure: as §1, §2
(§5) Kinetic parameters of crotyl alcohol phosphorylation were determined using the spectrophotometric assay described in Example 2.

[6] = substrate: C/C=C/CO; assay: as above; type: biochemical, Escherichia coli; conditions: other: crotyl alcohol phosphorylation, pH 7.5, 37° C., 5 mM ATP
Procedure: as §1, §2, §5

[7] = substrate: C/C=C\COP(=O)(O)O; assay: Kinetic parameters of the crotyl monophosphate phosphorylation reaction (pyruvate kinase/lactate dehydrogenase coupled spectrophotometric assay); type: biochemical, Thermoplasma acidophilum; conditions: other: cis crotyl monophosphate as a substrate; assay of Example 2; pH 7.5; 37.0 °C
Procedure: as §1, §2, §3, §4

[8] = substrate: C/C=C/COP(=O)(O)O; assay: as above; type: biochemical, Thermoplasma acidophilum; conditions: other: trans crotyl monophosphate as a substrate; assay of Example 2; pH 7.5; 37.0 °C
Procedure: as §1, §2, §3, §4

[9] = substrate: C/C=C/COP(=O)(O)OP(=O)(O)O; assay: Kinetic parameters of enzyme catalyzed production of 1,3-butadiene from trans crotyl diphosphate (GC/FID); type: biochemical, Eucalyptus globulus; conditions: other: 0-25 mM trans crotyl diphosphate, pH 7.5, 37° C., 20 mM MgCl2, 20 mM KCl, 0.5-4 h
Procedure: (§6) One ml of the gaseous phase was then collected and directly injected into a Varian GC-430 gas chromatograph equipped with a flame ionization detector (FID). Nitrogen was used as carrier gas with a flow rate of 1.5 ml/min. Volatile compounds were chromatographically separated on RT-Alumina Bond/Na2SO4 column (Restek) using an isothermal mode at 130° C. The enzymatic reaction product was identified by direct comparison with 1,3-butadiene standard (Sigma).
The kinetic parameters of enzyme catalyzed production of 1,3-butadiene from trans crotyl […] were measured under the following conditions: • 50 mM Tris-HCl pH 7.5 • 20 mM MgCl2 • 20 mM KCl • 2 mM DTT • 0-25 mM trans crotyl diphosphate
(§7) The reaction was initiated by addition of 0.25 mg of purified monoterpene synthase from Eucalyptus globulus to 0.5 ml of reaction mixture. An enzyme-free control reaction was carried out in parallel. Assays were incubated at 37° C. for 0.5-4 h in a sealed vial of 1.5 ml (Interchim) with shaking.
(§8) 1,3-butadiene production was analyzed using the GC/FID procedure described in Example 12.

[10] = substrate: C/C=C/COP(=O)(O)O; assay: Kinetic parameters of enzyme catalyzed production of 1,3-butadiene from trans crotyl monophosphate (GC/FID); type: biochemical, Eucalyptus globulus; conditions: other: 0-25 mM trans crotyl monophosphate, pH 7.5, 37° C., 20 mM MgCl2, 20 mM KCl, 0.5-4 h
Procedure: as §6
The kinetic parameters of enzyme catalyzed production of 1,3-butadiene from trans crotyl monophosphate were measured under the following conditions: • 50 mM Tris-HCl pH 7.5 • 20 mM MgCl2 • 20 mM KCl • 2 mM DTT • 0-25 mM trans crotyl monophosphate
as §7, §8

[11] = substrate: C/C=C\COP(=O)(O)O; assay: Kinetic parameters of the crotyl monophosphate phosphorylation reaction (pyruvate kinase/lactate dehydrogenase coupled spectrophotometric assay); type: biochemical, Methanocaldococcus jannaschii; conditions: other: cis crotyl monophosphate as a substrate; assay of Example 2; pH 7.5; 37.0 °C
Procedure: as §1, §2, §3, §4

[12] = substrate: C/C=C/COP(=O)(O)O; assay: as above; type: biochemical, Methanocaldococcus jannaschii; conditions: other: trans crotyl monophosphate as a substrate; assay of Example 2; pH 7.5; 37.0 °C
Procedure: as §1, §2, §3, §4

B1: isopentenyl monophosphate kinase from Methanothermobacter thermautotrophicus, SEQ ID NO:5 (Methanothermobacter thermautotrophicus str. Delta H) (protein)
chain: MIILKLGGSVITRKDSEEPAIDRDNLERIASEIGNASPSSLMIVHGAGSFGHPFAGEYRIGSEIENEEDLRRRRFGFALTQNWVKKLNSHVCDALLAEGIPAVSMQPSAFIRAHAGRISHADISLIRSYLEEGMVPVVYGDVVLDSDRRLKFSVISGDQLINHFSLRLMPERVILGTDVDGVYTRNPKKHPDARLLDVIGSLDDLESLDGTLNTDVTGGMVGKIRELLLLAEKGVESEIINAAVPGNIERALLGEEVRGTRITGKH
Km [1]: 940 µM | kcat [1]: 5.7 s⁻¹ | Km [2]: 450 µM | kcat [2]: 8.7 s⁻¹

B2: short chain alcohol dehydrogenase-like protein from Hahella chejuensis, SEQ ID NO: 17 (Hahella chejuensis KCTC 2396) (protein)
chain: MNYFVTGGTGFIGRFLVPKLLKRGGTVYLLVREASLPKLDELRERWNASDEQVVGVVGDLAQPMLGVSEKDAAMLRGKVGHFFHLAAIYDMQASAESQEQANIEGTRNAVKLADSLKAACFHHVSSIAAAGLYRGIFREDMFEEAEKLDNPYLRTKHESEKVVREECQTPWRVYRPGMVVGHSKTGEIDKIDGPYYFFKLIQKLRSALPQWMPTVGLEGGRINIVPVDFVVDAMDHIAHAEGEDGKCFHLTDPDPYKVGEILNIFAEAGHAPKMAMRIDARMFGFIPPMIRQGIARLPPVQRMKNAVLNDLGIPDEVMSFINYPTRFDNRETERLLKGTAIAVPRLQDYSPAIWDYWERHLDPDLHKDRTLRGAVEGRVCVITGATSGIGLSAARKLAEAGAKVVIAARTLEKLQEVKKELEELGGEVYEYSVDLSDLEDCDRFVANVLKDLGHVDVLVNNAGRSIRRSIQHAFDRFHDFERTMQLNYFGSLRLIMGFAPSMLERRRGHIVNISSIGVLTNAPRFSAYVASKAALDAFSRCAAAEFSDKNVTFTTINMPLVRTPMISPTKIYDSVPTLTPEEAADLVAEAIIHRPKRIATRLGVFAQVLHSMAPKFSEIIMNTGFKMFPDSSAATGGKDGEKPKVSTEQVAFAAIMRGIHW
Km [3]: 5000 µM | kcat [3]: 0.05 s⁻¹ | Km [4]: 1000 µM | kcat [4]: 6.0 s⁻¹

B3: 4-methyl-5-(2-hydroxyethyl)thiazole kinase (hydroxyethylthiazole kinase, EC 2.7.1.50) from Escherichia coli, SEQ ID NO:2 (Escherichia coli K-12) (protein)
chain: MQVDLLGSAQSAHALHLFHQHSPLVHCMTNDVVQTFTANTLLALGASPAMVIETEEASQFAAIASALLINVGTLTQPRAQAMRAAVEQAKSSQTPWTLDPVAVGALDYRRHFCHELLSFKPAAIRGNASEIMALAGIANGGRGVDTTDAAANAIPAAQTLARETGAIVVVTGEMDYVTDGHRIIGIHGGDPLMTKVVGTGCALSAVVAACCALPGDTLENVASACHWMKQAGERAVARSEGPGSFVPHFLDALWQLTQEVQA
Km [5]: 13600 µM | kcat [5]: 0.19 s⁻¹ | Km [6]: 30000 µM | kcat [6]: 0.11 s⁻¹

B4: isopentenyl monophosphate kinase from Thermoplasma acidophilum, SEQ ID NO:4 (Thermoplasma acidophilum DSM 1728) (protein)
chain: MMILKIGGSVITDKSAYRTARTYAIRSIVKVLSGIEDLVCVVHGGGSFGHIKAMEFGLPGPKNPRSSIGYSIVHRDMENLDLMVIDAMIEMGMRPISVPISALRYDGRFDYTPLIRYIDAGFVPVSYGDVYIKDEHSYGIYSGDDIMADMAELLKPDVAVFLTDVDGIYSKDPKRNPDAVLLRDIDTNITFDRVQNDVTGGIGKKFESMVKMKSSVKNGVYLINGNHPERIGDIGKESFIGTVIR
Km [7]: 610 µM | kcat [7]: 1.8 s⁻¹ | Km [8]: 1000 µM | kcat [8]: 2.2 s⁻¹

B5: monoterpene synthase from Eucalyptus globulus, SEQ ID NO: 8 (Eucalyptus globulus) (protein)
chain: MALRLLFTPHLPVLSSRRANGRVRCSASTQISDPQEGRRSANYQPSVWTYNYLQSIVAGEGRQSRREVEQQKEKVQILEEEVRGALNDEKAETFTIFATVDDIQRLGLGDHFEEDISNALRRCVSKGAVFMSLQKSLHGTALGFRLLRQHGYEVSQDVFKIFLDESGSFVKTLGGDVQGVLSLYEASHLAFEEEDILHKARSFAIKHLENLNSDVDKDLQDQVKHELELPLHRRMPLLEARRSIEAYSRREYTNPQILELALTDFNVSQSTLQRDLQEMLGWWNNTGLAKRLSFARDRLIECFFWAVGIAHEPSLSICRKAVTKAFALILVLDDVYDVFGTLEELELFTEAVRRWDLNAVEDLPVYMKLCYLALYNSVNEMAYETLKEKGENVIPYLAKAWYDLCKAFLQEAKWSNSRIIPGVEEYLNNGWVSSSGSVMLIHAYFLASPSIRKEELESLEHYHDLLRLPSLIFRLTNDIASSSAELERGETTNSIRCFMQEKGISELEARECVKEEIDTAWKKMNKYMVDRSTFNQSFVRMTYNLARMAHCVYQDGDAIGSPDDLSWNRVHSLIIKPISPAA
Km [9]: 7000 µM | kcat [9]: 3e-05 s⁻¹ | Km [10]: 6000 µM

B6: isopentenyl monophosphate kinase from Methanocaldococcus jannaschii, SEQ ID NO:6 (Methanocaldococcus jannaschii DSM 2661) (protein)
chain: MLTILKLGGSILSDKNVPYSIKWDNLERIAMEIKNALDYYKNQNKEIKLILVHGGGAFGHPVAKKYLKIEDGKKIFINMEKGFWEIQRAMRRFNNIIIDTLQSYDIPAVSIQPSSFVVFGDKLIFDTSAIKEMLKRNLVPVIHGDIVIDDKNGYRIISGDDIVPYLANELKADLILYATDVDGVLIDNKPIKRIDKNNIYKILNYLSGSNSIDVTGGMKYKIDMIRKNKCRGFVFNGNKANNIYKALLGEVEGTEIDFSE
Km [11]: 200 µM | kcat [11]: 3.4 s⁻¹ | Km [12]: 490 µM | kcat [12]: 3 s⁻¹
